Biological target: His6-BacA_(F134R), purified (Asticcacaulis biprosthecum)
Experiment: SEC; 500 μl of purified protein from the polymerization assay (Buffer C) on Superdex 200 Increase 10/300 GL, calibrated with standard proteins

Substance: His6-BacA_(F134R), purified (natural protein)
- stoichiometry N: 2

Source: publication doi:10.1101/2024.12.16.628611
